Measurements as given in patent publication US20250161478A1, “LINKER PAYLOADS AND CONJUGATES THEREOF” (priority 2021, published 2025).

Target: TYRP1 antigen on human melanoma cells (IGR-1, SK-MEL-30, SK-MEL-28) (human) (UniProt P17643)
Experiment: cell-based or functional assay

TAAuM (anti-mGP75-maleimidoacetyl-β-Ala-Val-Ser(Glc)-PAB-MMAU), DAR 10 (antibody)
IC50, cell viability (PrestoBlue), IGR-1 cells: 1.3 nM
